This note sets out measurements from patent US8969289.

Changes are numbered by the printed parent chain. Positions of bridges follow the written chain, without caps; N, C: chain ends. No end group written: not given here.

The target of one assay is human β-klotho (human) (UniProt Q86Z14). Kind of assay: cell-based or functional assay.
Assay [1] concerns the target β-klotho of differentiated 3T3-L1 adipocytes (mouse) (UniProt Q99N32). Briefly: cell-based or functional assay.
In another assay the target is Amylin receptor (chimpanzee; human, UniProt O60896 24-148). Kind of assay: cell-based or functional assay.
The target of assay [2] is T1, human serum albumin (human, UniProt P02768 25-609).
T1 construct: mature; Purified or recombinant albumin from suppliers; also called HSA; HuSA
Kind of assay: isothermal titration calorimetry (refers to FIG. 11). The method, then: SABA-FGF21 fusion protein plus buffer was placed in the instrument sample cell at a concentration range of 0.4 to 1.0 mg/mL protein. The matching buffer was placed in the reference cell. Concentrations were determined using extinction coefficients calculated from the protein sequences of the pure proteins. The instrument reaction cell was equilibrated at 37° C. […] The resultant thermogram data was fitted using Origin™ evaluation software package (Microcal Inc.) version 2.0.2 to estimate the stochiometry, enthalpy, and equilibrium disassociation constant (K_D) of the protein-protein binding reaction.
A general note: ITC needs no label: the signal is the heat of the interaction.

Assay [3] has as its target T1, human serum albumin. Briefly: comment in the summary table; Biacore at lowered pH; target not given, HSA by paragraph 278. (In general: SPR reads the build-up and loss of mass on a sensor chip optically.)

Amylin receptor, sequence (O60896 24-148): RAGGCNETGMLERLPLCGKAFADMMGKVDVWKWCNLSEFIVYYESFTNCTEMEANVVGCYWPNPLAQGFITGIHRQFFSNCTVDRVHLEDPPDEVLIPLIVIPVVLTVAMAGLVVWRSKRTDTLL
β-klotho of differentiated 3T3-L1 adipocytes (mouse), sequence (Q99N32 whole entry): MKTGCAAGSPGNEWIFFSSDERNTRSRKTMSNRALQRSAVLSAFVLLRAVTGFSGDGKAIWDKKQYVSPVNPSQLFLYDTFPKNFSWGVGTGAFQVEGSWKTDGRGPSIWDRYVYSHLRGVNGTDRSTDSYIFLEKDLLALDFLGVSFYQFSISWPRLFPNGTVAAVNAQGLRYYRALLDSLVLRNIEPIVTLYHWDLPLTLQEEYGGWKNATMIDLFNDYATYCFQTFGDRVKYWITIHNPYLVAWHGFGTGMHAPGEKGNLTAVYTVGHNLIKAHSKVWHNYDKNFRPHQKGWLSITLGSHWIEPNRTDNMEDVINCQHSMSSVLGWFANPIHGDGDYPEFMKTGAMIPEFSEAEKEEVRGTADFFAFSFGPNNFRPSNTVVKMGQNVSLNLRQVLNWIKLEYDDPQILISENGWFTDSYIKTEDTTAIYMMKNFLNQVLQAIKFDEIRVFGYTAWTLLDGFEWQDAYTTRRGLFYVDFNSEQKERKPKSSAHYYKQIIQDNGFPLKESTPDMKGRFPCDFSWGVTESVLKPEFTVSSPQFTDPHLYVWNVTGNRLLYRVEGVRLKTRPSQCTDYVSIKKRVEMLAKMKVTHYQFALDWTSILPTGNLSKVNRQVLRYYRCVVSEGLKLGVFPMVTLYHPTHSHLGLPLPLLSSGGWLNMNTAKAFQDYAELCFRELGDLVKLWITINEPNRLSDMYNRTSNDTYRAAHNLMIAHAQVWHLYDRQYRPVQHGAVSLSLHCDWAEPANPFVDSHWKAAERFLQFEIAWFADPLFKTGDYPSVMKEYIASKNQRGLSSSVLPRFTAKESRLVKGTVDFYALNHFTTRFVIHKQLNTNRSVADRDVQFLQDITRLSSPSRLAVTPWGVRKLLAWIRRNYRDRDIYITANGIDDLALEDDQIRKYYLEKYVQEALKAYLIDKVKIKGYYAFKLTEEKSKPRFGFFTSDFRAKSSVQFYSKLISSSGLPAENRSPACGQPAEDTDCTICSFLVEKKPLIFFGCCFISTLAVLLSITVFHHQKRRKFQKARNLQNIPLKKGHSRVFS

In the assay with human β-klotho (human), “His-tagged FGF21 (from UniProt Q9NSA1 29-209) (ligand)” came in with an EC50 (potency), pERK 1/2 in HEK β-Klotho expressing stable cells of 7 nM and an Efficacy (% of His6-tagged FGF21 maximal activity), pERK 1/2 in HEK β-Klotho expressing stable cells of 100%. In assay [1], this molecule returned an EC50, pERK 1/2 in 3T3-L1 adipocytes of 4 nM and a Fold Activation, pERK 1/2 in 3T3-L1 adipocytes of 2.1 fold.
As to KCNTATCATQRLANFLVRSSNNLGPVLPPTNVGSNTY-NH2 (disulfide 2-7) [Amylin Control Peptide], the “Efficacy (% of native peptide ligand maximal activity), cellular cAMP assay” value with Amylin receptor was found to be 100%.

B1: SABA1-FGF21v1 (designed binder)
chain: MGVSDVPRDLEVVAATPTSLLISWHSYYEQNSYYRITYGETGGNSPVQEFTVPYSQTTATISGLKPGVDYTITVYAVYGSKYYYPISINYRTEIEKPSQGSGSGSGSGSGSGSPIPDSSPLLQFGGQVRQRYLYTDDAQQTEAHLEIREDGTVGGAADQSPESLLQLKALKPGVIQILGVKTSRFLCQRPDGALYGSLHFDPEACSFRELLLEDGYNVYQSEAHGLPLHLPGNKSPHRDPAPRGPARFLPLPGLPPALPEPPGILAPQPPDVGSSDPLSMVGPSQGRSPSYAS
notes: Single-chain fusion: SABA core 1 with AdNT1 leader and AdCT7 tail, (GS)7 linker, FGF21 core with FNT3 leader and C-terminal S; also called SABA-FGF21v1 fusion; FGF21-SABA fusion
A word on the Kd: it is the concentration at which binding is half-saturated. A higher Kd goes with weaker binding. The molecule B1 came in with a dissociation constant Kd in the assay with human serum albumin [2] of approximately 4 nM.

B2: SABA4.1 (designed binder)
chain: MGVSDVPRDLEMVAATPTSLLISWEDDSYYSRYYRITYGETGGNSPVQEFTVPSDLYTATISGLKPGVDYTITVYAVTYDVTDLIMHEPISINYRTEIDKPSQHHHHHH
notes: Core 4 Adnectin (carries a scaffold mutation) with AdNT1, AdCT1 and His6
B2: the “fold decrease in KD at pH < 6.0” value in the assay with human serum albumin [3] is more than 2 fold.

B3: SABA5.1 (designed binder)
chain: B2 chain with M12V
notes: Scaffold-perfect version of SABA4 with the same BC, DE and FG loops; AdNT1, AdCT1 and His6
Regarding B3, in the assay with human serum albumin [3], the “fold decrease in KD at pH < 6.0” value is more than 2 fold.

B4: SABA1.7-(ED)5G-Cys-PEG20-Amylin-CONH2 (designed binder)
chain: MGVSDVPRDLEVVAATPTSLLISWHSYYEQNSYYRITYGETGGNSPVQEFTVPYSQTTATISGLKPGVDYTITVYAVYGSKYYYPISINYRTEIEDEDEDEDEDGC
modifications: Maleimide-PEG20 spacer (X1) between the Cys after (ED)5G and the amylin peptide; disulfide bridge between the two Cys of the amylin part; C-terminal amidation
As for B4, in the assay with Amylin receptor, the “Cell based Potency (EC50), cellular cAMP assay” value came out at 12.2 nM and the “Efficacy (% of native peptide ligand maximal activity), cellular cAMP assay” value is 119%.
